# Source: patent US20160137746A1, “METHODS FOR TREATING HIGH CARDIOVASCULAR RISK PATIENTS WITH HYPERCHOLESTEROLEMIA” (Sanofi Biotechnology, priority 2014, published 2016)
# Tested on: high cardiovascular risk patients with hypercholesterolemia
# Experiment: ODYSSEY LONG TERM: long-term safety and tolerability
# [1] = alirocumab patients with two consecutive LDL-C <25 mg/dL (n = 562), pre-specified analysis
# [2] = all alirocumab patients (n = 1550), pre-specified analysis
# Experimental: Safety parameters (adverse events [including adjudicated cardiovascular events], laboratory data, vital signs, and ECG) were assessed throughout the study.
# Safety endpoints assessed in this trial were: cardiovascular events; allergic events; local tolerability at injection site; other adverse events (including hemolytic anemia); laboratory tests: urinalysis, hematology (red blood cell count, red blood cell distribution width (RDW), reticulocyte count, hemoglobin, hematocrit, platelets, white blood cell count with differential blood count), standard chemistry (sodium, potassium, chloride, bicarbonate, calcium, phosphorous, urea nitrogen, creatinine, uric acid, total protein, albumin, LDH, γ Glutamyl Transferase [γGT]), Vitamin E (alpha tocopherol) and other Fat Soluble Vitamins, cortisol (and reflexive ACTH levels, as needed, followed by ACTH stimulation test, as needed), Gonadal Hormone Assessments, Hepatitis C antibody, liver panel (ALT, AST, ALP, and total bilirubin), and CPK; vital signs including heart rate and blood pressure; and 12-lead ECG.
# The safety population included all randomized patients who received at least one dose or part of a dose of the double-blind IMP.
# Safety analyses were descriptive, performed on the safety population according to treatment actually received. The safety analysis focused on the TEAE period defined as the time from the first dose of double-blind injection up to 70 days after the last double-blind injection. TEAE which developed, worsened or became serious or PCSA occurring after the patient's first injection in the open-label extension study (LTS13643) were not considered in the TEAE period. TEAE period was truncated at the common study cut-off date.
substance,measurement,setting,value
"Alirocumab: human anti-PCSK9 antibody; HCVR SEQ ID NO:1, LCVR SEQ ID NO:6; CDRs SEQ ID NOs 2/3/4/7/8/10","TEAEs by System-Organ-Class: Investigations (lab parameters), % of patients",[1],3.7% (21)
same,"TEAEs by System-Organ-Class: Metabolism and nutrition disorders, % of patients",[1],8.0% (45)
same,"TEAEs by System-Organ-Class: Musculoskeletal and connective tissue disorders, % of patients",[1],22.6% (127)
same,"TEAEs by System-Organ-Class: Neoplasms, benign, malignant (incl cysts/polyps), % of patients",[1],3.0% (17)
same,"TEAEs by System-Organ-Class: Nervous system disorders, % of patients",[1],11.2% (63)
same,"TEAEs by System-Organ-Class: Psychiatric disorders, % of patients",[1],4.3% (24)
same,"TEAEs by System-Organ-Class: Renal and urinary disorders, % of patients",[1],3.6% (20)
same,"TEAEs by System-Organ-Class: Reproductive system and breast disorders, % of patients",[1],2.0% (11)
same,"TEAEs by System-Organ-Class: Respiratory, thoracic, and mediastinal disorders, % of patients",[1],7.7% (43)
same,"TEAEs by System-Organ-Class: Skin and subcutaneous tissue disorders, % of patients",[1],6.9% (39)
same,"TEAEs by System-Organ-Class: Vascular disorders, % of patients",[1],5.0% (28)
same,"TEAEs leading to discontinuation, % of patients",[1],3.6% (20)
same,"TEAEs, % of patients",[1],71.9% (404)
same,"Treatment-emergent SAEs, % of patients",[1],14.6% (82)
same,"AE of special interest: All adjudicated cardiovascular events, % of patients",[2],4.0% (62)
same,"AE of special interest: General allergic reaction events, % of patients",[2],9.0% (140)
same,"AE of special interest: Haemolytic anaemia, % (n) of patients",[2],0
same,"AE of special interest: Neurocognitive disorders, % of patients",[2],1.2% (18)
same,"AE of special interest: Neurological events, % of patients",[2],4.2% (65)
same,"AE of special interest: Ophthalmological events, % of patients",[2],2.5% (38)
same,"AE of special interest: Treament-emergent local injection site reactions, % of patients",[2],5.8% (90)
same,"Neurocognitive AE: Amnesia, % of patients",[2],0.3% (5)
same,"Neurocognitive AE: Any neurocognitive disorder, % of patients",[2],1.2% (18)
same,"Neurocognitive AE: Confusion postoperative, % of patients",[2],<0.1% (1)
same,"Neurocognitive AE: Confusional state, % of patients",[2],0.3% (4)
same,"Neurocognitive AE: Dementia, % of patients",[2],<0.1% (1)
same,"Neurocognitive AE: Disorientation, % of patients",[2],<0.1% (1)
same,"Neurocognitive AE: Disturbance in attention, % of patients",[2],<0.1% (1)
same,"Neurocognitive AE: Frontotemporal dementia, % of patients",[2],<0.1% (1)
same,"Neurocognitive AE: Memory impairment, % of patients",[2],0.3% (5)
same,"Neurocognitive AE: Transient global amnesia, % of patients",[2],<0.1% (1)
same,"TEAE ALT increase, % of patients",[2],1.1%
same,"TEAE AST increase, % of patients",[2],0.2%
same,"TEAE Angina pectoris, % of patients",[2],2.1% (32)
same,"TEAE Arthralgia, % of patients",[2],4.5% (70)
same,"TEAE Atrial fibrillation, % of patients",[2],1.4% (22)
same,"TEAE Back pain, % of patients",[2],4.7% (73)
same,"TEAE Bronchitis, % of patients",[2],5.2% (80)
same,"TEAE CPK increase, % of patients",[2],0.5%
same,"TEAE Cellulitis, % of patients",[2],1.4% (22)
same,"TEAE Confusion, % of patients",[2],2.3% (35)
same,"TEAE Constipation, % of patients",[2],1.9% (30)
same,"TEAE Cough, % of patients",[2],3.2% (49)
same,"TEAE Depression, % of patients",[2],1.8% (28)
same,"TEAE Diabetes in patients with history of diabetes (Company MedDRA Query ""diabetes""), number as printed",[2],48
same,"TEAE Diabetes in patients with no history of diabetes (Company MedDRA Query ""diabetes""), number as printed",[2],19
same,"TEAE Diarrhea, % of patients",[2],5.3% (82)
same,"TEAE Dizziness, % of patients",[2],2.5% (38)
same,"TEAE Fall, % of patients",[2],2.8% (43)
same,"TEAE Fatigue, % of patients",[2],3.0% (47)
same,"TEAE Gastoenteritis, % of patients",[2],2.4% (37)
same,"TEAE Headache, % of patients",[2],4.8% (74)
same,"TEAE Hypertension, % of patients",[2],3.5% (54)
same,"TEAE Influenza, % of patients",[2],5.4% (84)
same,"TEAE Injection site reaction, % of patients",[2],5.7% (89)
same,"TEAE Muscle spasms, % of patients",[2],3.7% (58)
same,"TEAE Musculoskeletal pain, % of patients",[2],2.3% (36)
same,"TEAE Myalgia, % of patients",[2],4.9% (76)
same,"TEAE Nasopharyngitis, % of patients",[2],12.6% (196)
same,"TEAE Nausea, % of patients",[2],2.4% (37)
same,"TEAE Non-cardiac chest pain, % of patients",[2],1.8% (28)
same,"TEAE Osteoarthritis, % of patients",[2],2.3% (35)
same,"TEAE Pain in extremity, % of patients",[2],3.0% (46)
same,"TEAE Rhinitis, % of patients",[2],1.4% (22)
same,"TEAE Sinusitis, % of patients",[2],2.6% (40)
same,"TEAE Type-2 diabetes mellitus, % of patients",[2],1.7% (27)
same,"TEAE leading to death, % of patients",[2],0.5% (7)
same,"TEAEs by System-Organ-Class: Blood and lymphatic system disorders, % of patients",[2],2.4% (37)
same,"TEAEs by System-Organ-Class: Cardiac disorders, % of patients",[2],9.1% (141)
same,"TEAEs by System-Organ-Class: Ear and labyrinth disorders, % of patients",[2],2.0% (31)
same,"TEAEs by System-Organ-Class: Eye disorders, % of patients",[2],6.5% (100)
same,"TEAEs by System-Organ-Class: Gastrointestinal disorders, % of patients",[2],18.6% (288)
same,"TEAEs by System-Organ-Class: General disorders and administration site conditions, % of patients",[2],15.4% (238)
same,"TEAEs by System-Organ-Class: Injury, poisoning, and procedural complications, % of patients",[2],13.4% (207)
same,"TEAEs by System-Organ-Class: Investigations (lab parameters), % of patients",[2],6.1% (95)
same,"TEAEs by System-Organ-Class: Metabolism and nutrition disorders, % of patients",[2],9.1% (141)
same,"TEAEs by System-Organ-Class: Musculoskeletal and connective tissue disorders, % of patients",[2],27.2% (422)
same,"TEAEs by System-Organ-Class: Neoplasms, benign, malignant (incl cysts/polyps), % of patients",[2],2.5% (38)
same,"TEAEs by System-Organ-Class: Nervous system disorders, % of patients",[2],17.0% (264)
same,"TEAEs by System-Organ-Class: Psychiatric disorders, % of patients",[2],5.9% (91)
same,"TEAEs by System-Organ-Class: Renal and urinary disorders, % of patients",[2],4.6% (72)
same,"TEAEs by System-Organ-Class: Reproductive system and breast disorders, % of patients",[2],2.5% (38)
same,"TEAEs by System-Organ-Class: Respiratory, thoracic, and mediastinal disorders, % of patients",[2],11.0% (171)
same,"TEAEs by System-Organ-Class: Skin and subcutaneous tissue disorders, % of patients",[2],9.1% (141)
same,"TEAEs by System-Organ-Class: Vascular disorders, % of patients",[2],7.9% (122)
same,"TEAEs leading to discontinuation, % of patients",[2],6.2% (96)
same,"TEAEs, % of patients",[2],78.6% (1218)
same,"Treatment-emergent SAEs, % of patients",[2],16.5% (255)
same,Injection-site reactions,final analysis,5.9%
same,Myalgia,final analysis,5.4%
same,Neurocognitive events,final analysis,1.2%
same,Ophthalmological events,final analysis,2.9%
same,Patients with two consecutive calculated LDL cholesterol levels of less than 25 mg/dL (575 patients),final analysis,38%
same,Treatment-emergent adverse events,final analysis,81%
same,Treatment-emergent adverse events leading to study-drug discontinuation,final analysis,7.2%
same,"Alanine aminotransferase > 3 × ULN, % of patients",pre-specified analysis,1.6%
same,"Alanine aminotransferase > 3 × ULN, n/N of patients",pre-specified analysis,25/1532
same,"Aspartate aminiotransferase >3 × ULN, % of patients",pre-specified analysis,1.2%
same,"Aspartate aminiotransferase >3 × ULN, n/N of patients",pre-specified analysis,19/1532
same,"Creatine kinase > 3 × ULN, % of patients",pre-specified analysis,3.3%
same,"Creatine kinase > 3 × ULN, n/N of patients",pre-specified analysis,50/1507
same,Deaths reported during the study,pre-specified analysis,11 (0.7%) n (%)
same,Diarrhea (TEAE preferred term),pre-specified analysis,5.3%
same,Headache (TEAE preferred term),pre-specified analysis,4.8%
same,Hemolytic anaemia,pre-specified analysis,No case
same,Influenza (TEAE preferred term),pre-specified analysis,5.4%
same,Injection site reaction (TEAE preferred term),pre-specified analysis,5.7%
same,Nasopharyngitis (TEAE preferred term),pre-specified analysis,12.6%
same,Neurocognitive disorders,pre-specified analysis,18 (1.2%) n (%)
same,"Patients with LDL-C <25 mg/dL in two or more consecutive periods, share of population treated with alirocumab (562 out of 1550)",pre-specified analysis,36.3%
same,Patients with impaired glucose control at baseline defined as diabetic in the TEAE period,pre-specified analysis,36 (6.3%) n (%)
same,Patients with two consecutive calculated LDL-C values <25 mg/dL (<0.65 mmo/L),pre-specified analysis,562 (37.4%) n (%)
same,SOC gastrointestinal disorders,pre-specified analysis,18.6%
same,SOC general disorders and administration site conditions,pre-specified analysis,15.4%
same,"SOC injury, poisoning and procedural complications",pre-specified analysis,13.4%
same,SOC musculoskeletal and connective tissue disorders,pre-specified analysis,27.2%
same,SOC nervous system disorders,pre-specified analysis,17.0%
same,"SOC respiratory, thoracic and mediastinal disorders",pre-specified analysis,11.0%
same,Safety in patients with two consecutive calculated LDL-C <25 mg/dL,pre-specified analysis,No particular safety concern
same,TEAE leading to death,pre-specified analysis,7 (0.5%) n (%)
same,Time to first injection site reaction,pre-specified analysis,57 days
same,Treatment-emergent local injection site reaction,pre-specified analysis,90 (5.8%) n (%)
